Data reported in article PMC4617720, “Antigenic Characterization of the HCMV gH/gL/gO and Pentamer Cell Entry Complexes Reveals Binding Sites for Potently Neutralizing Human Antibodies” (PLoS Pathogens, 2015).

B3: HCMV UL130 (natural protein)
chain: SPWSTLTANQNPSPPWSKLTYSKPHDAATFYCPFLYPSPPRSPLQFSGFQRVSTGPECRNETLYLLYNREGQTLVERSSTWVKKVIWYLSGRNQTILQRMPRTASKPSDGNVQISVEDAKIFGAHMVPKQTKLLRFVVNDGTRYQMCVMKLESWAHVFRDYSVSFQVRLTFTEANNQTYTFCTHPNLIV
notes: source: 293EBNA cells, transfected with individual plasmids encoding each subunit; not shown: Strep-tag II, C-terminal, kept

Tests used:
Conditions in all cases: both partners purified
HCMV UL130 = target: B3; assay: cross-linking; purified unbound Pentamer (with UL131A-K27R), 36 pmol, 600-fold excess of DSSG-d0/d6 (links lysines up to 25 Å apart), 10 mM HEPES pH 7.5, 300 mM NaCl, RT, 30 min; cross-linked peptides identified by LC-MS/MS (xQuest)
[1] = target: T1, HCMV glycoprotein H (gH), soluble, terminated at amino acid 715 (human cytomegalovirus (HCMV), Merlin …, UniProt Q6SW67 24-715); assay: non-reducing SDS-PAGE with western blot; purified Pentamer, non-boiled and non-reduced (-/-), blotted with rabbit polyclonal anti-Pentamer antibody
T1 construct: source: 293EBNA cells, transfected with individual plasmids encoding each subunit
T1 sequence: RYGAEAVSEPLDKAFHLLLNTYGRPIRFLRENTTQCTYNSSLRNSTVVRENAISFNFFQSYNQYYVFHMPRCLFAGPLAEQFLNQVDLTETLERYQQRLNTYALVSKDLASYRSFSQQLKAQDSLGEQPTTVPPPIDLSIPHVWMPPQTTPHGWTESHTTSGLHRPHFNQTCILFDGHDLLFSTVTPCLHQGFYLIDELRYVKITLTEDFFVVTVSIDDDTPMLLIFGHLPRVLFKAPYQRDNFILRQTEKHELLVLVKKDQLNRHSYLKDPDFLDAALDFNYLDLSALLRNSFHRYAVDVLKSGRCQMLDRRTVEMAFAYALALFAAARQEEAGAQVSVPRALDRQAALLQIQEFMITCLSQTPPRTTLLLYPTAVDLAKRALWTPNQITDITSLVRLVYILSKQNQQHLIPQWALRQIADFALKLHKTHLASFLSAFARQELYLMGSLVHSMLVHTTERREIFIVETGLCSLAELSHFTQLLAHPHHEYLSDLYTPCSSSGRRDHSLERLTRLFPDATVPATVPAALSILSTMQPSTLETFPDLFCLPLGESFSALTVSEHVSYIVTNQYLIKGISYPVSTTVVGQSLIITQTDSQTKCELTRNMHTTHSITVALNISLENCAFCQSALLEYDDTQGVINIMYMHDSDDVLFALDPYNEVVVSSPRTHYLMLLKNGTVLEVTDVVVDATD

[2] = target: T1, HCMV glycoprotein H (gH), soluble, …; assay: cross-linking; purified unbound Pentamer (with UL131A-K27R), 36 pmol, 600-fold excess of DSSG-d0/d6 (links lysines up to 25 Å apart), 10 mM HEPES pH 7.5, 300 mM NaCl, RT, 30 min; cross-linked peptides identified by LC-MS/MS (xQuest)

B1: HCMV UL131A-K27R (natural protein)
chain: QCQRETAERNDYYRVPHYWDACSRALPDQTRYKYVEQLVDLTLNYHYDASHGLDNFDVLKRINVTEVSLLISDFRRQNRRGGTNKRTTFNAAGSLAPHARSLEFSVRLFAN
notes: also called UL131A-K27R mutation; source: 293EBNA cells, transfected with individual plasmids encoding each subunit
binding result (HCMV UL130): binds

B2: HCMV glycoprotein L (gL) (natural protein)
chain: AAVSVAPTAAEKVPAECPELTRRCLLGEVFEGDKYESWLRPLVNVTGRDGPLSQLIRYRPVTPEAANSVLLDEAFLDTLALLYNNPDQLRALLTLLSSDTAPRWMTVMRGYSECGDGSPAVYTCVDDLCRGYDLTRLSYGRSIFTEHVLGFELVPPSLFNVVVAIRNEATRTNRAVRLPVSTAAAPEGITLFYGLYNAVKEFCLRHQLDPPLLRHLDKYYAGLPPELKQTRVNLPAHSRYGPQAVDAR
notes: source: 293EBNA cells, transfected with individual plasmids encoding each subunit
binding result [1]: binds

B3
binding result [2]: binds
